What was measured:
cyno CD117 = molecular target: T1, cyno CD117 (Macaca fascicularis, UniProt A0A7N9CP24); assay: Carterra SPR, cyno CD117
T1 construct: antigen of the Carterra SPR kinetics; also called cynomolgus monkey CD117
Description: (§1) To further evaluate the antibodies discovered during the screens, 21 clones were selected for detailed characterization and were analyzed for target binding kinetics by a Carterra SPR instrument. The binding kinetics of the anti-CD117 antibodies for human CD117, cynomolgus monkey CD117, and murine CD117 are shown in FIG. 29A-29B.

[1] = molecular target: T2, Cluster of differentiation 117 (CD117), antigen of epitope binning and ELISA (UniProt P10721 26-520, limits assumed); assay: Carterra SPR, human CD117
T2 construct: also called tyrosine-protein kinase KIT; mast/stem cell growth factor receptor (SCFR)
Description: as §1

mouse CD117 = molecular target: T3, mouse CD117 (mouse, UniProt P05532); assay: Carterra SPR, mouse CD117
T3 construct: antigen of the Carterra SPR kinetics; also called murine CD117
T3 sequence (receptor, looked up): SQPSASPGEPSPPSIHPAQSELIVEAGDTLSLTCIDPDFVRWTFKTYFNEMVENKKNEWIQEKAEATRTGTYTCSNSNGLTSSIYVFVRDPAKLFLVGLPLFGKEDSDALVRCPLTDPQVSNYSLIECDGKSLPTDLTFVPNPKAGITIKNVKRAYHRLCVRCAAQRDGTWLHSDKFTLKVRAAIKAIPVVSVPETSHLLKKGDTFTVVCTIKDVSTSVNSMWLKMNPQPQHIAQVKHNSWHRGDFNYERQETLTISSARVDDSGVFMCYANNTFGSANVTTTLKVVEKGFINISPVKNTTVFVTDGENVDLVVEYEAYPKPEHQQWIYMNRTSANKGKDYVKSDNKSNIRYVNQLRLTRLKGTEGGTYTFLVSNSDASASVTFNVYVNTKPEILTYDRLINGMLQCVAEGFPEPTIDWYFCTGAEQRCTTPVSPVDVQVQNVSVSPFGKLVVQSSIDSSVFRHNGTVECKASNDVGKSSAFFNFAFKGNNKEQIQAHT
Description: as §1

[2] = molecular target: T4, CD117 transiently expressed on Expi293 cells (UniProt P10721 26-976, limits assumed); assay: FACS, MFI expressing / parental cells
T4 construct: whole, on cells; Two cassettes are described (P2A mVenus and direct mVenus fusion); also called CD117 transient cells; the transient cell line
Description: (§2) The transient expression of CD117 was validated with a control antibody, Expi293 (FIGS. 17A-17B). Expi293, […], was transiently transfected with CD117 48-hours post-transfection. The secondary antibody used was APC Goat anti-human IgG (diluted 1:400). 100,000 cells per well were blocked with 1×PBS+0.5% BSA for 1 hour, stained with 100 μL of the primary antibody for 1 hour, and stained with the secondary antibody for one hour, all with 3× washes in between each staining.

[3] = molecular target: T4, CD117 transiently expressed on Expi293 …; assay: FACS cell binding, Expi293 transiently expressing CD117
Description: as §2

T4 sequence (P10721 26-976 limits assumed): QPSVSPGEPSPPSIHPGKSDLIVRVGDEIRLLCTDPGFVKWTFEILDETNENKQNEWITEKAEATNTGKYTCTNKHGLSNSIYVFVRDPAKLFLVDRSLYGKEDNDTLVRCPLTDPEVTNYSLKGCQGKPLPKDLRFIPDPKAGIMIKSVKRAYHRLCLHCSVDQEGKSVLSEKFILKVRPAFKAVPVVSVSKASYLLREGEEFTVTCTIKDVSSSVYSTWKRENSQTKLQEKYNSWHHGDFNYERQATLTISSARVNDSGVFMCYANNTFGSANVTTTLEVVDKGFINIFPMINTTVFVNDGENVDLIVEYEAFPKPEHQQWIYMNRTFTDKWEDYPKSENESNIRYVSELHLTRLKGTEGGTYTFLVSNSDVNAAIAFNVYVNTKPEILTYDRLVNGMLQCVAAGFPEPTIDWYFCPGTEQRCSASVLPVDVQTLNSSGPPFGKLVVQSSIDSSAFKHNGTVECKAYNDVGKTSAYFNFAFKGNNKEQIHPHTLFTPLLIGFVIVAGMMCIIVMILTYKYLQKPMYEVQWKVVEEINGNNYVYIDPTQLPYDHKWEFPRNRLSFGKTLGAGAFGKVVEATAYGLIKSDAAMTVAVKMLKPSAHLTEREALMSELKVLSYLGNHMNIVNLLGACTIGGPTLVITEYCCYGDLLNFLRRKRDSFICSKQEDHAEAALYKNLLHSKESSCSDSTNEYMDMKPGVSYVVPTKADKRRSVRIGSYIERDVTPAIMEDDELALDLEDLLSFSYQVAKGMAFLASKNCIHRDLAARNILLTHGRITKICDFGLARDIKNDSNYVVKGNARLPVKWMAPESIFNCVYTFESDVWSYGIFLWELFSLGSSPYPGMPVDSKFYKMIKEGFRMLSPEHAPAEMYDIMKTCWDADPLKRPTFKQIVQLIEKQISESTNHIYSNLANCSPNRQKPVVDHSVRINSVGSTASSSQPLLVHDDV
T2 sequence (P10721 26-520 limits assumed): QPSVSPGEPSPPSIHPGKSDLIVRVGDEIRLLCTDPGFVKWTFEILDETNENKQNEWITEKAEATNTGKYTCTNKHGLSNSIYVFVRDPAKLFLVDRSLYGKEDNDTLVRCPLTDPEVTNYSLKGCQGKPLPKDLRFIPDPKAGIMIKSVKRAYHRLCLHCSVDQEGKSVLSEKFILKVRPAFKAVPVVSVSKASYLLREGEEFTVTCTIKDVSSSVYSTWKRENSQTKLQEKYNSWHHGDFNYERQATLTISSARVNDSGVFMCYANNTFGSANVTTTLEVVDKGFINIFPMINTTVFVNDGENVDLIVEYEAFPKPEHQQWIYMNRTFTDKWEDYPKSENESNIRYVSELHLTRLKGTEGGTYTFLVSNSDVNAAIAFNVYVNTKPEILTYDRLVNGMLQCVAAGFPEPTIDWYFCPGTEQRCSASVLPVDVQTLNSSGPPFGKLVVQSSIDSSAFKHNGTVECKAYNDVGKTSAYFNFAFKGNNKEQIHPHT
T1 sequence (A0A7N9CP24 entry or part of it): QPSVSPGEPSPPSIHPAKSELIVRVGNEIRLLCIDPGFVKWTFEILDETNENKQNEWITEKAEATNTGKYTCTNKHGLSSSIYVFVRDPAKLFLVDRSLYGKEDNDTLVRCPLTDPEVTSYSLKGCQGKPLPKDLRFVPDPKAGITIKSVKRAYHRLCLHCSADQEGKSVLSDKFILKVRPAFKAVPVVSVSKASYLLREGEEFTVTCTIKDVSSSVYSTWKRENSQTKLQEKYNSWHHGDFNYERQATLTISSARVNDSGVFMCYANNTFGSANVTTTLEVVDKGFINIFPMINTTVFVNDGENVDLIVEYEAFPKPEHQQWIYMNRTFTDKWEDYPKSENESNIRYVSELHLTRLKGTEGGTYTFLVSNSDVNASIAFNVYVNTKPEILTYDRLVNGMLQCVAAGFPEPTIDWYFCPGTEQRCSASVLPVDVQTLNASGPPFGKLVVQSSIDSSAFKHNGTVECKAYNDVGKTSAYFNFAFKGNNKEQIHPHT

B1: CD117-13 (antibody, human IgG1, kappa, V domains shown)
VH: EVQLLESGGGLVQPGGSLRLSCAASGFTLTSYAMSWVRQAPGKGLEWVSTISGSGGYTYYADSVKGRFTISRDNSKNTLYLQMNSLRAEDTAVYYCARDSGYDRGLDYWGQGTLVTVSS
VL: DIQMTQSPSSLSASVGDRVTITCRASQNIYTYLNWYQQKPGKAPKLLIYDASSLHSGVPSRFSGSGSGTDFTLTISSLQPEDFATYYCQQSSSTPYTFGGGTKVEIKR
notes: detected with anti-human IgG in FACS
Cyno CD117
  Kd: 480 nM
  koff: 0.156 s⁻¹
  kon: 324000 M⁻¹ s⁻¹
[1]
  Kd: 5.17 nM
  koff: 0.00877 s⁻¹
  kon: 1.7e+06 M⁻¹ s⁻¹
Mouse CD117
  binding result: no binding
[2]
  MFI Ratio: 18.6
[3]
  EC50: 11 nM

B2: CD117-18 (antibody, human IgG1, kappa, V domains shown)
VH: EVQLLESGGGLVQPGGSLRLSCAASGFTFSDYSMNWVRQAPGKGLEWVSAITGSGGNTFYADSVKGRFTISRDNSKNTLYLQMNSLRAEDTAVYYCARSNYEQDVFDIWGQGTLVTVSS
VL: DIQMTQSPSSLSASVGDRVTITCRASQTIYRYLNWYQQKPGKAPKLLIYDASDLQSGVPSRFSGSGSGTDFTLTISSLQPEDFATYYCQQSYSIPITFGGGTKVEIKR
notes: as for B1
Cyno CD117
  Kd: 5.02 nM
  koff: 0.00679 s⁻¹
  kon: 1.35e+06 M⁻¹ s⁻¹
[1]
  Kd: 2.53 nM
  koff: 0.00336 s⁻¹
  kon: 1.33e+06 M⁻¹ s⁻¹
Mouse CD117
  binding result: no binding
[2]
  MFI Ratio: 16.2
[3]
  EC50: 20 nM

B3: CD117-5 (antibody, human IgG1, kappa, V domains shown)
VH: EVQLLESGGGLVQPGGSLRLSCAASGFIFTNYAMSWVRQAPGKGLEWVSAIGGSGSSTYYADSVKGRFTVSRDNSKNTLYLQMNSLRAEDTAVYYCVKGGYSYGDSFDFWGQGTLVTVSS
VL: DIQMTQSPSSLSASVGDRVTITCRASQSVRNYLNWYQQKPGKAPKLLIYDASDLQSGVPSRFSGSGSGTDFTLTISSLQPEDFATYYCQQGYSTPWTFGGGTKVEIKR
notes: as for B1
Cyno CD117
  Kd: 2390 nM
  koff: 0.211 s⁻¹
  kon: 88300 M⁻¹ s⁻¹
[1]
  Kd: 670 nM
  koff: 0.201 s⁻¹
  kon: 300000 M⁻¹ s⁻¹
Mouse CD117
  binding result: no binding
[2]
  MFI Ratio: 21.3
[3]
  EC50: 6.88 nM

B4: CD117-12 (antibody, human IgG1, kappa, V domains shown)
VH: EVQLLESGGGLVQPGGSLRLSCAASGITFSSYAMTWVRQAPGKGLEWVSAISSSGTGTYYADSVKGRFTISRDNSKNTLYLQMNSLRAEDTAVYYCARERAPKDFGSSGYSFDYWGQGTLVTVSS
VL: DIQMTQSPSSLSASVGDRVTITCRASQSIDIYLNWYQQKPGKAPKLLIYKASSLQSGVPSRFSGSGSGTDFTLTISSLQPEDFATYYCQQSYTVPITFGGGTKVEIKR
notes: as for B1
Cyno CD117
  Kd: 5190 nM
  koff: 0.201 s⁻¹
  kon: 38700 M⁻¹ s⁻¹
[1]
  Kd: 187 nM
  koff: 0.101 s⁻¹
  kon: 541000 M⁻¹ s⁻¹
Mouse CD117
  binding result: no binding
[2]
  MFI Ratio: 10.6
[3]
  EC50: 1210 nM

B5: CD117-11 (antibody, human IgG1, kappa, V domains shown)
VH: EVQLLESGGGLVQPGGSLRLSCAASGFTFGNFAMSWVRQAPGKGLEWVSLISGSGGNTYYADSVKGRFTISRDNSKNTLYLQMNSLRAEDTAVYYCARGDGVNGFDYWGQGTLVTVSS
VL: DIQMTQSPSSLSASVGDRVTITCRASQSIPTYLNWYQQKPGKAPKLLIYATSTLESGVPSRFSGSGSGTDFTLTISSLQPEDFATYYCQQTYSTPYTFGGGTKVEIKR
notes: as for B1
Cyno CD117
  Kd: 338 nM
  koff: 0.0681 s⁻¹
  kon: 201000 M⁻¹ s⁻¹
[1]
  Kd: 270 nM
  koff: 0.0679 s⁻¹
  kon: 252000 M⁻¹ s⁻¹
Mouse CD117
  binding result: no binding
[2]
  MFI Ratio: 17.2
[3]
  EC50: 4.31 nM

B6: CD117-9 (antibody, human IgG1, kappa, V domains shown)
VH: EVQLLESGGGLVQPGGSLRLSCAASGFSFTNYAMSWVRQAPGKGLEWVSSISGSGGSTYYADSVKGRFTISRDNSKNTLYLQMNSLRAEDTAVYYCARGSGSYFGFDFWGQGTLVTVSS
VL: DIQMTQSPSSLSASVGDRVTITCRASQGIGTYLNWYQQKPGKAPKLLIYAASSLQPGVPSRFSGSGSGTDFTLTISSLQPEDFATYYCQQSYRPPFTFGGGTKVEIKR
notes: as for B1
Cyno CD117
  Kd: 15.7 nM
  koff: 0.0108 s⁻¹
  kon: 685000 M⁻¹ s⁻¹
[1]
  Kd: 9.51 nM
  koff: 0.0058 s⁻¹
  kon: 610000 M⁻¹ s⁻¹
Mouse CD117
  binding result: no binding
[2]
  MFI Ratio: 29.1
[3]
  EC50: 1.39 nM

B7: CD117-20 (antibody, human IgG1, kappa, V domains shown)
VH: EVQLLESGGGLVQPGGSLRLSCAASGFTFSSDAMNWVRQAPGKGLEWVSGISGSGGYTYYADSVKGRFTISRDNSKNTLYLQMNSLRAEDTAVYYCARSGNVVGDGMDVWGQGTLVTVSS
VL: DIQMTQSPSSLSASVGDRVTITCRASQNIRRYLNWYQQKPGKAPKLLIYDASTLESGVPSRFSGSGSGTDFTLTISSLQPEDFATYYCQQSHTTPLTFGGGTKVEIKR
notes: as for B1
Cyno CD117
  Kd: 4120 nM
  koff: 0.298 s⁻¹
  kon: 72200 M⁻¹ s⁻¹
[1]
  binding result: no binding
Mouse CD117
  binding result: no binding
[2]
  MFI Ratio: 14.4
[3]
  EC50: 6.24 nM

B8: CD117-10 (antibody, human IgG1, kappa, V domains shown)
VH: EVQLLESGGGLVQPGGSLRLSCAASGFIFSSYAMTWVRQAPGKGLEWVSSISGRGGNTYYADSVKGRFTISRDNSKNTLYLQMNSLRAEDTAVYYCAKMMDDFYDAFNMWGQGTLVTVSS
VL: DIQMTQSPSSLSASVGDRVTITCRASQSIRTYLNWYQQKPGKAPKLLIYDASSLESGVPSRFSGSGSGTDFTLTISSLQPEDFATYYCQQSFTTPYTFGGGTKVEIKR
notes: as for B1
Cyno CD117
  Kd: 26600 nM
  koff: 0.916 s⁻¹
  kon: 34400 M⁻¹ s⁻¹
[1]
  binding result: no binding
Mouse CD117
  binding result: no binding
[2]
  MFI Ratio: 21.2
[3]
  EC50: 91.3 nM

B9: CD117-17 (antibody, human IgG1, kappa, V domains shown)
VH: EVQLLESGGGLVQPGGSLRLSCAASGFTFSDYPMSWVRQAPGKGLEWVSAIGGSGGDTYYADSVKGRFTISRDNSKNTLYLQMNSLRAEDTAVYYCARGAYDGEGFDYWGQGTLVTVSS
VL: DIQMTQSPSSLSASVGDRVTITCRASQTISGYLNWYQQKPGKAPKLLIYDASTLQRGVPSRFSGSGSGTDFTLTISSLQPEDFATYYCQQNYRTPFTFGGGTKVEIKR
notes: as for B1
Cyno CD117
  Kd: 92.6 nM
  koff: 0.0673 s⁻¹
  kon: 727000 M⁻¹ s⁻¹
[1]
  Kd: 3 nM
  koff: 0.00406 s⁻¹
  kon: 1.35e+06 M⁻¹ s⁻¹
Mouse CD117
  binding result: no binding
[2]
  MFI Ratio: 20.1
[3]
  EC50: 7.58 nM

B10: CD117-19 (antibody, human IgG1, kappa, V domains shown)
VH: EVQLLESGGGLVQPGGSLRLSCAASGFSFSSYAMSWVRQAPGKGLEWVSAISGTGGNTYYADSVKGRFTISRDNSKNTLYLQMNSLRAEDTAVYYCARRNDFWSDAFDIWGQGTLVTVSS
VL: DIQMTQSPSSLSASVGDRVTITCRASQNIYTYLNWYQQKPGKAPKLLIYDASSLHSGVPSRFSGSGSGTDFTLTISSLQPEDFATYYCQQSYSSSITFGGGTKVEIKR
notes: as for B1
Cyno CD117
  Kd: 20.8 nM
  koff: 0.0272 s⁻¹
  kon: 1.31e+06 M⁻¹ s⁻¹
[1]
  Kd: 5.87 nM
  koff: 0.00388 s⁻¹
  kon: 662000 M⁻¹ s⁻¹
Mouse CD117
  binding result: no binding
[2]
  MFI Ratio: 12.9
[3]
  EC50: 3.29 nM

From patent US20260001953A1 (TWIST BIOSCIENCE, published 2026)
